Reference: article doi:10.1101/2024.06.26.600780 (bioRxiv, 2024)

B1: Nb207 (VHH)
VHH: QVQLVESGGGLVQAGGSLRLSCAASGRTFSTAAMGWFRQAPGKERDFVAGIYWTVGSTYYADSAKGRFTISRDNAKNTVYLQMDSLKPEDTAVYYCAARRRGFTLAPTRANEYDYWGQGTQVTVSS
B2: Nb394 (VHH)
VHH: QVQLVESGGGLVQAGGSLRLSCAASGRTFSVSNMGWFRQAPGKERVFVAAIGWTTGSTYYADSVKGRFTISRDNTKNTVYLQMNSLKPEDTAVYRCAARRRGYSRVPMTPDEYEYWGQGTQVTVSS
B3: Nb395 (VHH)
VHH: QVQLVESGGGLVQTGDSLRLSCAASLRTFKSYAMGWFRQAPGKEREAVATISAEGDSTYYDDSVKGRFTISRDNAANTVYLQMNSLKPEDTAVYYCAASRFPYGLRLLQRRESDYWGQGTQVTVSS

Target: Green Fluorescent Protein (GFP), biotinylated (biotin (EZ-Link NHS-PEG4-Biotin))
Test: BLI

Binder	binding result
B1	binds
B2	binds
B3	binds
